Legend:
[1] = biological target: human monoclonal anti-HIV-1 antibody 2F5 (isotype not stated in the assay); assay: competition ELISA: 50 ng/mL 3H6 preincubated with 31 ng/mL 2F5, then 2F5 binding to coated …
[2] = biological target: human anti-HIV-1 (gp120 recognizing) antibody 2G12; assay: cell-based or functional assay
[3] = biological target: human monoclonal anti-HIV-1 antibody 2F5 (isotype not stated in the assay); assay: cell-based or functional assay
[4] = biological target: human monoclonal anti-HIV-1 antibody 2F5 (isotype not stated in the assay); assay: competition ELISA: 500 ng/mL 3H6 preincubated with 31 ng/mL 2F5, then 2F5 binding to coated …

B1: murine monoclonal anti-idiotypic antibody (Ab2) 3H6 (antibody, V domains shown)
VH: GVQLQQSGPELVKTGASVKISCKASGYSFTDYFMHWVKQSHGKSLDWIGYINCYTGATNYSQKFKGKATFTVDTSSNTAYMQFNSLTSEDSAVYYCARTSIGYGSSPPFPYWGQGTLVTVSA
VL: ETTVTQSPASLSMSIGEKVTIRCITSTDIDDDMNWYQQKPGEPPRLLISDGNTLRPGVPSRFSSSGYGTDFVFTIENMLSEDVADYYCLQSDNLPYTFGGGTNLEIK
reduction of the OD [1]: 37%
reduction of 2G12 (10 µg/mL) neutralization of HIV-1 NL4-3 [2]: > 250 µg/mL
depletion of 2F5 (10 µg/mL) neutralization of HIV-1 NL4-3 on AA-2 cells, p24 ELISA [3]: 3.9 µg/mL
reduction of 2F5 (10 µg/mL) neutralization at 3.9 µg/mL 3H6 [3]: 95%
reduction of the neutralizing capacity of 2F5 (10 µg/mL) at 1.9 µg/mL 3H6 [3]: 5%
reduction of OD [4]: 83%
